In PMC4921775, “Transient Fcho1/2⋅Eps15/R⋅AP-2 Nanoclusters Prime the AP-2 Clathrin Adaptor for Cargo Binding” (Developmental Cell, 2016):

B1: FCHO1 μHD (purified, not on beads) [human] / EPS15 616–638 peptide [human] (parent complex)
chain 1: HGVSRGPSPVVLGSQDALPIATAFTEYVHAYFRGHSPSCLARVTGELTMTFPAGIVRVFSGTPPPPVLSFRLVHTTAIEHFQPNADLLFSDPSQSDPETKDFWLNMAALTEALQRQAEQNPTASYYNVVLLRYQFSRPGPQSVPLQLSAHWQCGATLTQVSVEYGYRPGATAVPTPLTNVQILLPVGEPVTNVRLQPAATWNLEEKRLTWRLPDVSEAGGSGRLSASWEPLSGPSTPSPVAAQFTSEGTTLSGVDLELVGSGYRMSLVKRRFATGMYLVSC
chain 2: NLDFFQSDPFVGSDPFKDDPFGK

Variants of: B1
Test: ITC; parent: 2.7e+03 nM

| Kd [µM] | Variant |
| --- | --- |
| 77.4 | chain 1 R264A, chain 1 S266G |
| 19.6 | chain 1 R264M |
| 9.1 | chain 1 S124D |
